According to patent US20260167699A1 (Chugai, published 2026):
Numbering of substitutions follows the chain as printed.

T1: FcγRIIa(R) extracellular domain with C-terminal His tag (human, UniProt P12318 34-217)
T1 construct: extracellular domain; R131 allotype; also called 2aR; CD32
T1 sequence: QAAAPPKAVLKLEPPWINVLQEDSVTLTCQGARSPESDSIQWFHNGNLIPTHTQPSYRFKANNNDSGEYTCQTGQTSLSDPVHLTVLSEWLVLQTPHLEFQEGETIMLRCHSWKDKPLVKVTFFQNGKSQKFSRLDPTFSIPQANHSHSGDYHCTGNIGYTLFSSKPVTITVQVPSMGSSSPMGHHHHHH

T2: FcγRIIa(H) extracellular domain with C-terminal His tag (human, UniProt P12318 34-217)
T2 construct: extracellular domain; H131 allotype; also called 2aH; CD32
T2 sequence: T1 sequence with R134H

T3: FcγRIIb extracellular domain with C-terminal His tag (human, UniProt P31994 43-217)
T3 construct: extracellular domain; also called 2b; CD32
T3 sequence: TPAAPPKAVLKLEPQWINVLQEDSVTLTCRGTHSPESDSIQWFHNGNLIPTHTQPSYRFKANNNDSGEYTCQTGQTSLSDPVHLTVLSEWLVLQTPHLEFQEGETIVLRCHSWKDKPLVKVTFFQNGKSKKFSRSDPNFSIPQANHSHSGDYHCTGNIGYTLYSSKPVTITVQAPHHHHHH

T4: FcγRIIa(H) (human, UniProt P12318 34-217)
T4 construct: extracellular domain; also called FcγRIIa H type; 2aH
T4 sequence: T1 sequence with R134H

T5: FcγRIIa(R) (human, UniProt P12318 34-217)
T5 construct: extracellular domain; also called FcγRIIa R type; 2aR
T5 sequence: T1 sequence

T6: FcγRIIb (human, UniProt P31994 43-217)
T6 construct: extracellular domain; also called 2b
T6 sequence: T3 sequence

B1: GpH7-A5/GpH7-B3 variant T335_02A/GpL16-k0 (antibody, human IgG1, kappa)
heavy 1: not shown
heavy 2: not shown
light: DIVMTQSPLSLPVTPGEPASISCQASESLVHSNRNTYLHWYLQKPGQSPQLLIYKVSNRFSGVPDRFSGSGSGTDFTLKISRVEAEDVGVYYCSQNTHVPPTFGQGTKVEIERTVAAPSVFIFPPSDEQLKSGTASVVCLLNNFYPREAKVQWKVDNALQSGNSQESVTEQDSKDSTYSLSSTLTLSKADYEKHKVYACEVTHQGLSSPVTKSFNRGEC
notes: heterodimerized IgG1 (He Ab), mutation in one H chain only; also called He Ab
B2: GpH7-A5/GpH7-B3 variant H268_05P/GpL16-k0 (antibody, human IgG1, kappa)
heavy 1: not shown
heavy 2: not shown
light: B1 light
notes: heterodimerized IgG1, one H chain mutated; also called He Ab
B3: GpH7-A5/GpH7-B3 variant T335_20W/GpL16-k0 (antibody, human IgG1, kappa)
heavy 1: not shown
heavy 2: not shown
light: B1 light
notes: as for B1
B4: GpH7-A5/GpH7-B3 variant T335_19Q/GpL16-k0 (antibody, human IgG1, kappa)
heavy 1: not shown
heavy 2: not shown
light: B1 light
notes: as for B1
B5: GpH7-A5/GpH7-B3 variant T335_08L/GpL16-k0 (antibody, human IgG1, kappa)
heavy 1: not shown
heavy 2: not shown
light: B1 light
notes: as for B1
B6: GpH7-A5/GpH7-B3 variant T335_04F/GpL16-k0 (antibody, human IgG1, kappa)
heavy 1: not shown
heavy 2: not shown
light: B1 light
notes: as for B1
B7: GpH7-A5/GpH7-B3 variant T335_11K/GpL16-k0 (antibody, human IgG1, kappa)
heavy 1: not shown
heavy 2: not shown
light: B1 light
notes: as for B1
B8: GpH7-A5/GpH7-B3 variant D270_10E/GpL16-k0 (antibody, human IgG1, kappa)
heavy 1: not shown
heavy 2: not shown
light: B1 light
notes: as for B2
B9: GpH7-A5/GpH7-B3 variant T335_18N/GpL16-k0 (antibody, human IgG1, kappa)
heavy 1: not shown
heavy 2: not shown
light: B1 light
notes: as for B1
B10: GpH7-A5/GpH7-B3 variant D270_14T/GpL16-k0 (antibody, human IgG1, kappa)
heavy 1: not shown
heavy 2: not shown
light: B1 light
notes: as for B2
B11: GpH7-A5/GpH7-B3 variant T335_09D/GpL16-k0 (antibody, human IgG1, kappa)
heavy 1: not shown
heavy 2: not shown
light: B1 light
notes: as for B1
B12: GpH7-A5/GpH7-B3 variant T335_10E/GpL16-k0 (antibody, human IgG1, kappa)
heavy 1: not shown
heavy 2: not shown
light: B1 light
notes: as for B1
B13: GpH7-A5/GpH7-B3 variant T335_15Y/GpL16-k0 (antibody, human IgG1, kappa)
heavy 1: not shown
heavy 2: not shown
light: B1 light
notes: as for B1
B14: GpH7-A5/GpH7-B3 variant T335_12R/GpL16-k0 (antibody, human IgG1, kappa)
heavy 1: not shown
heavy 2: not shown
light: B1 light
notes: as for B1
B15: GpH7-A5/GpH7-B3 variant T335_05P/GpL16-k0 (antibody, human IgG1, kappa)
heavy 1: not shown
heavy 2: not shown
light: B1 light
notes: as for B1
B16: GpH7-A5/GpH7-B3 variant T335_03V/GpL16-k0 (antibody, human IgG1, kappa)
heavy 1: not shown
heavy 2: not shown
light: B1 light
notes: as for B1
B17: GpH7-A5/GpH7-B3 variant E269_01G/GpL16-k0 (antibody, human IgG1, kappa)
heavy 1: not shown
heavy 2: not shown
light: B1 light
notes: as for B2
B18: GpH7-A5/GpH7-B3 variant D270_08L/GpL16-k0 (antibody, human IgG1, kappa)
heavy 1: not shown
heavy 2: not shown
light: B1 light
notes: as for B2
B19: GpH7-A5/GpH7-B3 variant E269_02A/GpL16-k0 (antibody, human IgG1, kappa)
heavy 1: not shown
heavy 2: not shown
light: B1 light
notes: as for B2
B20: GpH7-A5/GpH7-B3 variant T335_06M/GpL16-k0 (antibody, human IgG1, kappa)
heavy 1: not shown
heavy 2: not shown
light: B1 light
notes: as for B1
B21: GpH7-A5/GpH7-B3 variant T335_16H/GpL16-k0 (antibody, human IgG1, kappa)
heavy 1: not shown
heavy 2: not shown
light: B1 light
notes: as for B1
B22: GpH7-A5/GpH7-B3 variant T335_07I/GpL16-k0 (antibody, human IgG1, kappa)
heavy 1: not shown
heavy 2: not shown
light: B1 light
notes: as for B1
B23: GpH7-A5/GpH7-B3 variant T335_13S/GpL16-k0 (antibody, human IgG1, kappa)
heavy 1: not shown
heavy 2: not shown
light: B1 light
notes: as for B1

Assays:
[1] = target: T7, FcγRIa extracellular domain with C-terminal His tag (human, UniProt P12314 16-292); assay: SPR; % of GpH7-A5/GpH7-B3/GpL16-k0
T7 construct: extracellular domain; also called 1a; CD64
T7 sequence (P12314 other isoform, or with tags, fused parts or gaps): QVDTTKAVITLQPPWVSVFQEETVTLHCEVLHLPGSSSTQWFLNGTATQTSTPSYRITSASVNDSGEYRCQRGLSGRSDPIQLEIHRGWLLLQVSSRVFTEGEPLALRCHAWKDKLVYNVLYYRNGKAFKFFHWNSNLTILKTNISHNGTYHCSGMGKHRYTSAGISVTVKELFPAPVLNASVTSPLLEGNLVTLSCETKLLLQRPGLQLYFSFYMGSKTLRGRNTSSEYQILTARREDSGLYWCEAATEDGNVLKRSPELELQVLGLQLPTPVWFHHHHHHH

[2] = target: T1, FcγRIIa(R) extracellular domain with …; assay: SPR; % of GpH7-A5/GpH7-B3/GpL16-k0
[3] = target: T8, FcγRIIIa extracellular domain with C-terminal His tag (human, UniProt P08637 17-208); assay: SPR; % of GpH7-A5/GpH7-B3/GpL16-k0
T8 construct: extracellular domain; also called 3a; CD16
T8 sequence (P08637 other isoform, or with tags, fused parts or gaps): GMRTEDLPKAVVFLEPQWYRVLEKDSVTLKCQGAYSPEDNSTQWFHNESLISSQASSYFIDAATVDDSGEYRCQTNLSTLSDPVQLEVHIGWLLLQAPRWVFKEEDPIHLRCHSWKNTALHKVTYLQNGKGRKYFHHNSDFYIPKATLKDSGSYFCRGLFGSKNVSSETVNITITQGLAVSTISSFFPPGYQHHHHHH

[4] = target: T2, FcγRIIa(H) extracellular domain with …; assay: SPR; % of GpH7-A5/GpH7-B3/GpL16-k0
[5] = target: T3, FcγRIIb extracellular domain with …; assay: SPR; % of GpH7-A5/GpH7-B3/GpL16-k0
FcγRIa = target: T9, FcγRIa (human, UniProt P12314 16-292); assay: SPR (Biacore), binding relative to GpH7-A5/GpH7-B3/GpL16-k0 x100;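 further: surface plasmon resonance at 25 °C, antibody captured on a sensor chip and soluble FcγR flowed over it in HBS-EP+ running buffer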
T9 construct: extracellular domain; also called 1a
T9 sequence (P12314 other isoform, or with tags, fused parts or gaps): as the sequence (P12314 other isoform, or with tags, fused parts or gaps) above

FcγRIIa(H) = target: T4, FcγRIIa(H); assay: as above
FcγRIIa(R) = target: T5, FcγRIIa(R); assay: as above
FcγRIIb = target: T6, FcγRIIb; assay: as above

Binder	He/Con 1a [1] [%]	He/Con 2aR [2] [%]	He/Con 3a [3] [%]	He/Con 2aH [4] [%]	He/Con 2b [5] [%]	He/Con 1a (FcγRIa) [%]	He/Con 2aH (FcγRIIa(H)) [%]	He/Con 2aR (FcγRIIa(R)) [%]	He/Con 2b (FcγRIIb) [%]
B1	107	108	90.9	104	103	–	–	–	–
B2	–	–	–	–	–	106	82.7	114	122
B3	110	115	97.3	109	114	–	–	–	–
B4	108	112	97.7	107	109	–	–	–	–
B5	118	114	97.8	109	114	–	–	–	–
B6	108	113	91.7	107	112	–	–	–	–
B7	114	105	91.7	103	99.4	–	–	–	–
B8	–	–	–	–	–	104	111	85.7	72.5
B9	109	112	94.4	107	111	–	–	–	–
B10	–	–	–	–	–	89.5	81.3	72.2	54.8
B11	111	116	103	111	118	–	–	–	–
B12	112	117	102	112	118	–	–	–	–
B13	111	117	99.7	110	118	–	–	–	–
B14	116	106	93.1	103	100	–	–	–	–
B15	110	109	100	112	109	–	–	–	–
B16	108	112	96.3	107	109	–	–	–	–
B17	–	–	–	–	–	101	72.3	70.3	54.1
B18	–	–	–	–	–	93.2	81.8	62.8	50.8
B19	–	–	–	–	–	101	78.7	70.2	52.4
B20	110	110	97	106	109	–	–	–	–
B21	109	114	99.3	109	112	–	–	–	–
B22	113	115	102	112	116	–	–	–	–
B23	108	116	100	110	111	–	–	–	–
